B1: LINE1-full (parent)
chain: UACGUAGGUGGUUUUCCCCUGAUAGUGCUAAGGGGGCCUGGAAGUUUGGACUGGGCAGAGCUCAACACAGCGUGGCAAAGUGGCUGUGGCUAGACUGCCUCUCUGGAUUCCUCGUCACUCAGCAGGGCAUCUCUGAGAGAAAUGCC

The variants in this series derive from B1. Briefly: self-cleavage, relative activity (ratio to wild type); higher = more cleavage; in vitro, sequencing; the parent is a self-cleaving ribozyme.
Consider UACGUAGGUGGUUUACCCCUGAUAGUGCUAAGGGGGCCUGGAAGUUUGGACUGGGCAGAGCUCAACACAGCGUGGCAAAGUGGCUGUGGCUAGACUGCCUCUCUGGUUUCCUCGUCACUCAGCAGGGCAUCUCUGAGAGAAAUGCC [U15A A107U], for which the self-cleavage came to 1.06. For UACGUAGGUGGUUUACCCCUGAUAGUGCUAAGGGGGCCUGGAAGUUUGGACUGGGCAGAGCUCAACACAGCGUGGCCAAGUGGCUGUGGCUAGACUGCCUCUCUGGAUUCCUCGUCACUCAGCAGGGCAUCUCUGAGAGAAAUGCC [U15A A77C], the self-cleavage was 0.7. Regarding UACGUAGGUGGUUGUCCCCUGAUAGUGCUAAGGGGGCCUGGAAGUUUGGACUGGGCAGAGCUCAACACAGCGUGGCAAAGUGGCUGUGGCUAGACUGCCUCUCUGGAUUCCUCGUCACUCAGCAGGGCAUCCCUGAGAGAAAUGCC [U14G U132C], the self-cleavage came out at 1.13. UACGUAGGUGGUUUACCCCUGAUAGUGCUAAGGGGGCCUGGAAGUUUGGACUGGGCAGAGCUCAACACAGCGUGGCAAAGUGGCUGUGGCUGGACUGCCUCUCUGGAUUCCUCGUCACUCAGCAGGGCAUCUCUGAGAGAAAUGCC [U15A A92G]: the self-cleavage was 0.25. UACGUAGGUGGUUGUCCCCUGAUAGUGCUAAGGGGGCCUGGAAGUUUGGACUGGGCAGAGCUCAACACAGCGUGGCAAAGUGGCUGCGGCUAGACUGCCUCUCUGGAUUCCUCGUCACUCAGCAGGGCAUCUCUGAGAGAAAUGCC [U14G U87C]: the self-cleavage came out at 0.41. With UACGUAGGUGGUUGUCCCCUGAUAGUGCUAAGGGGGCCUGGAAGUUUGGACUGGGCAGAGCUCAACACAGCGUGGCAAAGUGGCUGUGGCUAGACUGCCUCUCUGGAUUCCUCGUCGCUCAGCAGGGCAUCUCUGAGAGAAAUGCC [U14G A117G], the self-cleavage worked out at 0.39. As to UACGUAGGUGGUUGUCCCCUGAUAGUGCUAAGGGGGCCUGGAAGUUUGGACUGGGCAGAGCUCAACACAGCGUGGCAAAGUGGCUGUGGCUAGACUGCCUCUCUGGAUUCCUCGUCUCUCAGCAGGGCAUCUCUGAGAGAAAUGCC [U14G A117U], the self-cleavage stood at 0.78. Turning to UACGUAGGUGGUUUACCCCUGAUAGUGCUAAGGGGGCCUGGAAGUUUGGACUGGGCAGAGCUCAACACAGCGUGGCAAAGUGGCUGUGGCUAGACUGCCUCUCUGGAUUCCUCGUCACUCAGCAGGGCAUCUCUGGGAGAAAUGCC [U15A A136G], the self-cleavage is 1.26.

On to UACGUAGGUGGUUUACCCCUGAUAGUGCUAAGGGGGCCUGGAAGUUUGGACUGGGCAGAGCUCAACACAGCGUGGCAAAGUGGCUGUGGCUAGACUGCCUCUCUGGAUUCCUCGUCACUCAGCAGGGCAUCUCUGAGUGAAAUGCC [U15A A138U], for which the self-cleavage was found to be 1.07.

With UACGUAGGUGGUUUACCCCUGAUAGUGCUAAGGGGGCCUGGAAGUUUGGACUGGGCAGAGCUCAACACAGCGUGGCAAAGUGGCUGUGGCUAGACUGCCUCUCUGGAUUCCUCGUCACUCAGCAGGGCAUCUCUGAGGGAAAUGCC [U15A A138G], the self-cleavage turned out to be 1.45. Consider UACGUAGGUGGUUUACCCCUGAUAGUGCUAAGGGGGCCUGGAAGUUUGGACUGGGCAGAGCUCAUCACAGCGUGGCAAAGUGGCUGUGGCUAGACUGCCUCUCUGGAUUCCUCGUCACUCAGCAGGGCAUCUCUGAGAGAAAUGCC [U15A A65U], for which the self-cleavage came out at 0.29. With UACGUAGGUGGUUUACCCCUGAUAGUGCUAAGGGGGCCUGGAAGUUUGGACUGGGCAGAGCUCUACACAGCGUGGCAAAGUGGCUGUGGCUAGACUGCCUCUCUGGAUUCCUCGUCACUCAGCAGGGCAUCUCUGAGAGAAAUGCC [U15A A64U] the figure was 0.29; with UACGUAGGUGGUUUACCCCUGAUAGUGCUAAGGGGGCCUGGAAGUUUGGACUGGGCAGAGCUCGACACAGCGUGGCAAAGUGGCUGUGGCUAGACUGCCUCUCUGGAUUCCUCGUCACUCAGCAGGGCAUCUCUGAGAGAAAUGCC [U15A A64G], 0.08; with UACGUAGGUGGUUUACCCCUGAUAGUGCUAAGGGGGCCUGGAAGUUUGGACUGGGCAGAGCUCAACACAGCGUGGCAAUGUGGCUGUGGCUAGACUGCCUCUCUGGAUUCCUCGUCACUCAGCAGGGCAUCUCUGAGAGAAAUGCC [U15A A79U], 1.09. As for UACGUAGGUGGUUGUCCCCUGAUAGAGCUAAGGGGGCCUGGAAGUUUGGACUGGGCAGAGCUCAACACAGCGUGGCAAAGUGGCUGUGGCUAGACUGCCUCUCUGGAUUCCUCGUCACUCAGCAGGGCAUCUCUGAGAGAAAUGCC [U14G U26A], the self-cleavage turned out to be 1.18.

Take UACGUAGGUGGUUUACCCCUGAUAGUGCUAAGGGGGCCUGGAAGUUUGGACUGGGCAGAGCUCAACACAGCGUGGCAAAGUGGCUGUGGCUAGACUGCCUCUCUGGAUUCCUCGUCACUCAGCGGGGCAUCUCUGAGAGAAAUGCC [U15A A124G]: the self-cleavage came out at 0.76. With UACGUAGGUGGUUUACCCCUGAUAGUGCUAAGGGGGCCUGGAAGUUUGGACUGGGCAGAGCUCAACACAGCGUGGCAAAGUGGCUGUGGCUAGACUGCCUCUCUGGAUUCCUCGUCACUCAGCUGGGCAUCUCUGAGAGAAAUGCC [U15A A124U] the figure was 0.85. For UACGUAGGUGGUUGUCCCCUGAUAGUGCCAAGGGGGCCUGGAAGUUUGGACUGGGCAGAGCUCAACACAGCGUGGCAAAGUGGCUGUGGCUAGACUGCCUCUCUGGAUUCCUCGUCACUCAGCAGGGCAUCUCUGAGAGAAAUGCC [U14G U29C], the self-cleavage was found to be 1.6. With UACGUAGGUGGUUGUCCCCUGAUAGUGCUAAGGGGGCCCGGAAGUUUGGACUGGGCAGAGCUCAACACAGCGUGGCAAAGUGGCUGUGGCUAGACUGCCUCUCUGGAUUCCUCGUCACUCAGCAGGGCAUCUCUGAGAGAAAUGCC [U14G U39C], the self-cleavage was found to be 1.25. Turning to UACGUAGGUGGUUGUCCCCUGAUAGUGCUAAGGGGGCCUGGAAGUUUGGACUGGGCAGAGCUCAACACAGCGUGGCAAAGUGGCUGUGGCUAGACUGCCUCUCUGGAUUCCUCGUCACUCAGCAGGGCGUCUCUGAGAGAAAUGCC [U14G A129G], the self-cleavage turned out to be 0.84.

For the variant UACGUAGGUGGUUGUCCCCUGAUAGUGCUAAGGGGGCCUGGAAGUUUGGACUGGGCAGAGCUCAACACAGCGUGGCAAAGUGGCUGUGGCUAGACUGCCUCUCUGGAUUCCUCGUCACUCAGCAGGGCUUCUCUGAGAGAAAUGCC [U14G A129U], the self-cleavage came out at 0.89. As for UACGUAGGUGGUUUACCCCUGAUAGUGCUAAGGGGGCCUGGAAGUUUGGACUGGGCAGAGCUCAACACGGCGUGGCAAAGUGGCUGUGGCUAGACUGCCUCUCUGGAUUCCUCGUCACUCAGCAGGGCAUCUCUGAGAGAAAUGCC [U15A A69G], the self-cleavage amounted to 0.22. Turning to UACGUAGGUGGUUUACCCCUGAUAGUGCUAAGGGGGCCUGGAAGUUUGGACUGGGCAGGGCUCAACACAGCGUGGCAAAGUGGCUGUGGCUAGACUGCCUCUCUGGAUUCCUCGUCACUCAGCAGGGCAUCUCUGAGAGAAAUGCC [U15A A59G], the self-cleavage worked out at 0.08.

In the case of UACGUAGGUGGUUUACCCCUGAUAGUGCUAAGGGGGCCUGGAAGUUUGGACUGGGCAGAGCUCAACACAGCGUGGCAAAGUGGCUGUGGCUAGACUGCCUCUCUGGAUUCCUCGUCACUCUGCAGGGCAUCUCUGAGAGAAAUGCC [U15A A121U], the self-cleavage was found to be 1.35. For UACGUAGGUGGUUUACCCCUGAUAGUGCUAAGGGGGCCUGGAAGUUUGGACUGGGCAGAGCUCAACACAGCGUGGCAAAGUGGCUGUGGCUAGACUGCCUCUCUGGAUUCCUCGUCACUCCGCAGGGCAUCUCUGAGAGAAAUGCC [U15A A121C], the self-cleavage worked out at 0.82. In the case of UACGUAGGUGGUUGUCCCCUGAUAGUGCUAAGGGGGCCUGGAAGUUUGGACUGGGCAGAGCUCAACACAGCGUGGCAAAGUGGCUGUGGCUAGACUGCCUCUCUGGAUUCCUCGUCACUCAGCAGGGCAUCUCUGAGAGAGAUGCC [U14G A141G], the self-cleavage worked out at 0.89. Take UACGUAGGUGGUUUACCCCUGAUAGUGCUAAGGGGGCCUGGAAGUUUGGACUGGGCAGAGCUCAACACAGCGUGGCAAAGUGGCUGUGGCUAGACUGCCUCUCUGGAUUCCUCGUCACUCAGCAGGGCAUCUCUGAGAGAGAUGCC [U15A A141G]: the self-cleavage turned out to be 1.35. In the case of UACGUAGGUGGUUUACCCCUGGUAGUGCUAAGGGGGCCUGGAAGUUUGGACUGGGCAGAGCUCAACACAGCGUGGCAAAGUGGCUGUGGCUAGACUGCCUCUCUGGAUUCCUCGUCACUCAGCAGGGCAUCUCUGAGAGAAAUGCC [U15A A22G], the self-cleavage was 0.79. As to UACGUAGGUGGUUUACCCCUGUUAGUGCUAAGGGGGCCUGGAAGUUUGGACUGGGCAGAGCUCAACACAGCGUGGCAAAGUGGCUGUGGCUAGACUGCCUCUCUGGAUUCCUCGUCACUCAGCAGGGCAUCUCUGAGAGAAAUGCC [U15A A22U], the self-cleavage stood at 1.16. With UACGUAGGUGGUUUACCCCUGCUAGUGCUAAGGGGGCCUGGAAGUUUGGACUGGGCAGAGCUCAACACAGCGUGGCAAAGUGGCUGUGGCUAGACUGCCUCUCUGGAUUCCUCGUCACUCAGCAGGGCAUCUCUGAGAGAAAUGCC [U15A A22C] the figure was 0.85. Turning to UACGUAGGUGGUUGUCCCCUGAUAGUGCUAAGGGGGCCUGGAAGUUUGGACUGGGCAGAGCUCAACACAGCGUGGCAAAGUGGCUGUGGCUAGACUGCCUCUCUGGAUUCCUCGUCACUCUGCAGGGCAUCUCUGAGAGAAAUGCC [U14G A121U], the self-cleavage was 0.95. In the case of UACGUAGGUGGUUGUCCCCUGAUAGUGCUAAGGGGGCCUGGAAGUUUGGACUGGGCAGAGCUCAACACAGCGUGGCAAAGUGGCAGUGGCUAGACUGCCUCUCUGGAUUCCUCGUCACUCAGCAGGGCAUCUCUGAGAGAAAUGCC [U14G U85A], the self-cleavage came out at 0.28.

As for UACGUAGGUGGUUGUCCCCUGAUAGUGCUAAGGGGGCCUGGAAGUUUGGACUGGGCAGAGCUCAACACAGCGUGGCAAAGAGGCUGUGGCUAGACUGCCUCUCUGGAUUCCUCGUCACUCAGCAGGGCAUCUCUGAGAGAAAUGCC [U14G U81A], the self-cleavage worked out at 1.91. In the case of UACGUAGGUGGUUUACCCCUGAUAGUGCUAAGGGGGCCUGGAAGUUUGGACUGGGCAGAGCUCAACGCAGCGUGGCAAAGUGGCUGUGGCUAGACUGCCUCUCUGGAUUCCUCGUCACUCAGCAGGGCAUCUCUGAGAGAAAUGCC [U15A A67G], the self-cleavage came to 0.41. In the case of UACGUAGGUGGUUUACCCCUGAUAGUGCUAAGGGGGCCUGGAAGUUUGGACUGGGCUGAGCUCAACACAGCGUGGCAAAGUGGCUGUGGCUAGACUGCCUCUCUGGAUUCCUCGUCACUCAGCAGGGCAUCUCUGAGAGAAAUGCC [U15A A57U], the self-cleavage worked out at 0.14. On to UACGUAGGUGGUUUACCCCUGAUAGUGCUAAGGGGGCCUGGAAGUUUGGACUGGGCAGAGCUCAACACAGCGUGGCAAAGUGGCUGUGGCUAGACUGCCUCUCUGGAUUCCUCGUCACUCAGCAGGGCAUCUCUGAGAGGAAUGCC [U15A A140G], for which the self-cleavage is 1.11. With UACGUAGGUGGUUUACCCCUGAUAGUGCUAAGGGGGCCUGGAAGUUUGGACUGGGCAGAGCUCAACACAGCGUGGCAAAGUGGCUGUGGCUAGACUGCCUCUCUGGAUUCCUCGUCACUCAGCAGGGCAUCUCUGAGAGUAAUGCC [U15A A140U] the figure was 0.61. In the case of UACGUAGGUGGUUGUCCCCUGAUAGUGCUAAGGGGGCCUGGAAGUUUGGACAGGGCAGAGCUCAACACAGCGUGGCAAAGUGGCUGUGGCUAGACUGCCUCUCUGGAUUCCUCGUCACUCAGCAGGGCAUCUCUGAGAGAAAUGCC [U14G U52A] it was 1.08. In the case of UACGUAGGUGGUUUACCCCUGAUAGUGCUUAGGGGGCCUGGAAGUUUGGACUGGGCAGAGCUCAACACAGCGUGGCAAAGUGGCUGUGGCUAGACUGCCUCUCUGGAUUCCUCGUCACUCAGCAGGGCAUCUCUGAGAGAAAUGCC [U15A A30U], the self-cleavage is 0.85.

For the origin of these results see the RNAGym collection of RNA variant scans (doi:10.7554/elife.90254).
